The values below are quoted from earlier work in PMC11574045, “A cofactor-induced repressive type of transcription factor condensation can be induced by synthetic peptides to suppress tumorigenesis” (The EMBO Journal, 2024).

The target of this data set is VGLL4 (Homo sapiens) (UniProt Q14135). Conditions: cited from earlier work.
VGLL4 (Homo sapiens), sequence (Q14135 whole entry): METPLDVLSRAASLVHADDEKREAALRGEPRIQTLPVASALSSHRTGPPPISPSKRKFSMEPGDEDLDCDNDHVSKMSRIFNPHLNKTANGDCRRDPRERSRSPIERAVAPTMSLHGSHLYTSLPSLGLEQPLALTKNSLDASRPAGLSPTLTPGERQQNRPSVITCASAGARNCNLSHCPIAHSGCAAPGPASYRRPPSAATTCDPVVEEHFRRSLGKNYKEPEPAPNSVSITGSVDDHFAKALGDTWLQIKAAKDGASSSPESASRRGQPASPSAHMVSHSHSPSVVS

TEAD4, sequence (Q15561 whole entry): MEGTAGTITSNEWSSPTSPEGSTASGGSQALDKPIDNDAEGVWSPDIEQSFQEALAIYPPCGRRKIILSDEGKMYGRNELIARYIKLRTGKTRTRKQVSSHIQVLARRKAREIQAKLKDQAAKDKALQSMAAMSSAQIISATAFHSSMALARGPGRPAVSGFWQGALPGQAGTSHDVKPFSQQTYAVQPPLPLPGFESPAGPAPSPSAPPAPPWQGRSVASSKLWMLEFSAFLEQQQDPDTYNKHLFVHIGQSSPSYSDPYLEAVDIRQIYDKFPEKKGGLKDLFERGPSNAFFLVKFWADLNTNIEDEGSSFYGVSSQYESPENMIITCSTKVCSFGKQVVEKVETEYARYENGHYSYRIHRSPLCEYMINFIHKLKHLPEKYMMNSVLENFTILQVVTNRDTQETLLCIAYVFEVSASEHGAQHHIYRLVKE

One may read the Kd as a measure of binding affinity in units of concentration. As for TEAD4 (from UniProt Q15561), the Kd is 6.8 nM.
